B1: AS33_375 (protein)
chain: MMALSKKMLEQEPSEIELLLPWHAAGTLNARDARRVEDALARDPELAKQYAAIRGEYEETIHLNESLGAPSARAMQKLFGAIDAEPARETGSLPLSARIATFFASLSPRTLAWSASLGAVALVLQAGIIGAVLMKTQPTTFQTASLSTSAPITRELGAAVAPARALVRFTPEARVADITALLDSYQASIIGDAKGGMFRLQFDKAMSQDELASLLGRMQREKFVNLAVAAP
B2: AS38_1322 (protein)
chain: MSDGNDARPDARDGHDPGSDARDGHDPGSHARDGHDPGAGPFDGHGPGSDAGDGDDAGPDARDGHGAPAGPAGREQRKHPHDTHDMHDTHDTHAGKGTVNHGPAAQGPDAPGADGPATDEAALRAMMQRAVREMEPSDGTLEHLRRAVPARRARKRQALVGAAAAALFLGTAVPALVHVSNATGAGADPSVAGNASQAQGGASQGKDPAGGQSGVAGTGDTPEDRDKADPKETPGGKEPGAATGAPPSGVPSASSPADVPACAPGSLGPAVASSAEPDSTGVVYGSFRVTNVSSDGCTVTGPGTVVTASLGAAEATRIGTARHAAGDAAAGLPDPSLETASLALAPGAAYEVQFAWVPSETCPTTGGTTGGGSGGPSPDPSPTADTTAAGGTSAGGGEAGPTTQLITEDGPAEGSVSVTYTPEGGSGSATATVSNACAGTVYWTGLLADSGSGA
B3: AS33_423 (protein)
chain: MMAMSNTMPDPREPGDVEALLPWYAAGTLNARDARRVADALDRDPALARQYAVILEEYASTIELNESLGAPSSRAMQKLFAAIDAEPARAPGAGQGLGARFAGFFAGLSPKALAWSASVAGLALLLQAGLIGALLTWPHAAPVQTAAYQPQREVARAPASSPAPATVSPPAAAMADRAADAGKSTPPMVMAERSGGPVVRSLAPQSGPRVLVKFAPEARASEIAALLDQYNAVVVDSSRGGLFRLQFGTQSLSKQDQETLIGRLQKEPVVSVVLSAP
B4: AS35_3582 (protein)
chain: MNPQKHSASVAEEQMLAHFRAHAPQQPAPALDQAILAAARRQAAHVEPARSWWRRWLEASRRPRWQAAFASLLGVALVLGLVSHNVLDDAERQARPEVAFSDVPLRDGVAGAAAAKRAMRAPAAPAPLSGEMSEPPALLASYASSGEAPQLMAEAAPPAPAALADRPPAQAAQQAKVQAALAGDFVAQARGKAVAVKPEVLDEALGAVLALREQGKTEQAATQLAELQKRFPGENLVERLERLATIAASARKRP
B5: AS37_2513 (protein)
chain: MSSAPATKEEVDFALKVRRALDERAASLPDATTDRLAAARRAALARKKPDAAIVLVPALAGSAGTLELRPPGEPRKSLARRLARAWPLALLLAGLIGIAYWEDMQRTAELADIDAAMLSDNLPLTAYLDHGFNAYLSHTH

Values joined by “and” are separate entries in the source; they are usually repeats but may differ in a detail not shown here. Equal entries are not always repeated.

One assay concerns the target T1, ECF20_992.
T1 chain: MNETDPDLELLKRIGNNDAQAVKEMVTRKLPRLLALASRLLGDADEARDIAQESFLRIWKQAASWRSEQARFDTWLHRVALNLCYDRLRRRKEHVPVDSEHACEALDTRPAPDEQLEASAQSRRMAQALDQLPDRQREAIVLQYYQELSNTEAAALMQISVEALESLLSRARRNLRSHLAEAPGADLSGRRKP
For B1, the fold repression came out at 20.7.
Still for that read-out and setting: then B2, with 3.28.
B3 yielded a fold repression of 14.2.
Regarding B4, the fold repression stood at 3.26.
On the same count and under the same terms, in the case of B5 it was 5.31.

The next assay deals with T2, ECF25_1643.
T2 chain: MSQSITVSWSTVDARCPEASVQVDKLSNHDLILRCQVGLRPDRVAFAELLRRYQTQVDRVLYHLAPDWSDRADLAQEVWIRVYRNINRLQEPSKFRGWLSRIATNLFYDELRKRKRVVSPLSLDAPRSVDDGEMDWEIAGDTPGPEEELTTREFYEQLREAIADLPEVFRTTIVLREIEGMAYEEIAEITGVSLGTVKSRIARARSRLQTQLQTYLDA
As for B1, the fold repression was 5.97 and 4.93.
For the molecule B2, the fold repression is 4.12 and 4.01.
Regarding B3, the fold repression is 3.19 and 2.96.
As for B4, the fold repression is 5.68 and 4.69.
On to B5, for which the fold repression is 5.22 and 5.59.

The target of the next assay is ECF26_4464.
B1 registered a fold repression of 14.1.
On the same count and under the same terms, then B2, with 5.74.
The same measure, in the same setting: in the case of B3 it was 9.42; in that of B4, 10.7.
The same measure, in the same setting: then B5, with 7.32.

The next assay addresses T3, ECF11_987.
T3 chain: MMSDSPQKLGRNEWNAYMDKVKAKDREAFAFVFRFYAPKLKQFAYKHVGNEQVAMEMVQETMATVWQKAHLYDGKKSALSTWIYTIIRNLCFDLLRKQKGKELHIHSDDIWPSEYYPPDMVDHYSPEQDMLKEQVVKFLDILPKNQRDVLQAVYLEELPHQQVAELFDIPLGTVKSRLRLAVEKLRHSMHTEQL
Take B1: the fold repression was 17.1.
As for B2, the fold repression was 10.4.
The same measure, in the same setting: then B3, with 13.7; and B4, with 9.63; and B5, with 9.25.

The target of a further assay is T4, ECF01_3473.
T4 chain: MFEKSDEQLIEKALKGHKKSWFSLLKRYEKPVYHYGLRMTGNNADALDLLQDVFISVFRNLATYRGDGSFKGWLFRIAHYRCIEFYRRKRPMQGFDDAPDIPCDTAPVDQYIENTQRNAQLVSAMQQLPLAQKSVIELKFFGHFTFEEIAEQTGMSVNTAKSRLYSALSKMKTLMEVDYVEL
The molecule B1 displayed a fold repression of 5.29.
In turn, B2 displayed a fold repression of 4.19.
B3 yielded a fold repression of 3.36.
On the same count and under the same terms, in the case of B4 it was 5.93.
Still for that read-out and setting: in the case of B5 it was 6.84.

The target in a further assay is T5, ECF35_3582.
T5 chain: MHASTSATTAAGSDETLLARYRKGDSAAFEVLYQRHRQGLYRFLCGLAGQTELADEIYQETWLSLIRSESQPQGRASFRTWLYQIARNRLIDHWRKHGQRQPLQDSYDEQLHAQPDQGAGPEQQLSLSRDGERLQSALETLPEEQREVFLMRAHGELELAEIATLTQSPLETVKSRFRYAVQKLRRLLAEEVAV
Molecule B1 had a fold repression of 5.86.
B2: the fold repression was determined as 2.8.
B3 gave a fold repression of 6.37.
Same read-out and setting: then B4, with 311; and B5, with 2.62.

For the next assay, the target named is T6, ECF15_436.
T6 chain: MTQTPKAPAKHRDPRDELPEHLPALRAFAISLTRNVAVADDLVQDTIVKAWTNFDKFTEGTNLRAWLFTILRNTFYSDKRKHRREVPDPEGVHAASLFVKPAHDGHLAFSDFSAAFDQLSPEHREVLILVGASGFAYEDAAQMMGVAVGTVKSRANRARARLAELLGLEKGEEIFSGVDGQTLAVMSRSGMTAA
Molecule B1 registered a fold repression of 20.3.
The molecule B2 came in with a fold repression of 5.64.
On the same count and under the same terms, in the case of B3 it was 14.3; in that of B4, 7.43; in that of B5, 5.3.

The next assay has as its target T7, ECF17_1458.
T7 chain: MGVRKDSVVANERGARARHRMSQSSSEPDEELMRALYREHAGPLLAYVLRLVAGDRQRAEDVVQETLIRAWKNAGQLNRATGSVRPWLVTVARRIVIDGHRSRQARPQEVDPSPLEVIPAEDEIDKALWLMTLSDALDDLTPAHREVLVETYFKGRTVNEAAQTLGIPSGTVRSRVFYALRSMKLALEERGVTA
Take B1: the fold repression came to 11.3.
B2 showed a fold repression of 4.75.
The same measure, in the same setting: then B3, with 8.41; and B4, with 7.06; and B5, with 5.87.

A further assay addresses T8, ECF31_34.
T8 chain: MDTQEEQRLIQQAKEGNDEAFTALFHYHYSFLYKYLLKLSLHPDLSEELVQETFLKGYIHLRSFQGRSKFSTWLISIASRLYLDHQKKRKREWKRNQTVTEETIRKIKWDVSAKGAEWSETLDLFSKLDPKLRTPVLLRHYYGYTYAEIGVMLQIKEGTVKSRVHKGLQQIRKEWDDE
Regarding B1, the fold repression came out at 9.28.
The same measure, in the same setting: then B2, with 4.78; and B3, with 8.35; and B4, with 5.2.
Still for that read-out and setting: then B5, with 3.08.

For the next assay, the target named is T9, ECF12_807.
T9 chain: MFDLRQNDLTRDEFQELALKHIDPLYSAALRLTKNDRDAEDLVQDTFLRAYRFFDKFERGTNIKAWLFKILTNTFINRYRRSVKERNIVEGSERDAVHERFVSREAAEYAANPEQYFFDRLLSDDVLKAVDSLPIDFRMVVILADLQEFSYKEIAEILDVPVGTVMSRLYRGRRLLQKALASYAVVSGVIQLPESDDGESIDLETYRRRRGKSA
B1: the fold repression stood at 7.97.
In turn, B2 came in with a fold repression of 5.77.
Same read-out and setting: in the case of B3 it was 6.47; in that of B4, 10.1; in that of B5, 9.33.

Another assay deals with T10, ECF22_4450.
T10 chain: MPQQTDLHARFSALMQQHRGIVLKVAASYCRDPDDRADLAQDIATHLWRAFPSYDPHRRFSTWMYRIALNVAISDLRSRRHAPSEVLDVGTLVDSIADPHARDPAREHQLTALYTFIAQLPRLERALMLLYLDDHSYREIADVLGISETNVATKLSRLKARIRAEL
With B1, the fold repression is 31.
The same measure, in the same setting: in the case of B2 it was 6.3.
Still for that read-out and setting: then B3, with 23.1; and B4, with 8.03.
In the case of B5, the fold repression amounted to 7.22.

The target of another assay is T11, ECF22_1147.
T11 chain: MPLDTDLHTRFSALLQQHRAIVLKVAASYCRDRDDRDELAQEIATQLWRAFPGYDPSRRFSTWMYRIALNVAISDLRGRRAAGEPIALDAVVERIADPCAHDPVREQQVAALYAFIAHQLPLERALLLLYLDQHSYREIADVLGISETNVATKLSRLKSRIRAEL
B1 yielded a fold repression of 12.9.
On the same count and under the same terms, in the case of B2 it was 6.04; in that of B3, 9.02.
The same measure, in the same setting: then B4, with 10.9.
The same measure, in the same setting: in the case of B5 it was 8.31.

A further assay addresses T12, ECF17_1691.
T12 chain: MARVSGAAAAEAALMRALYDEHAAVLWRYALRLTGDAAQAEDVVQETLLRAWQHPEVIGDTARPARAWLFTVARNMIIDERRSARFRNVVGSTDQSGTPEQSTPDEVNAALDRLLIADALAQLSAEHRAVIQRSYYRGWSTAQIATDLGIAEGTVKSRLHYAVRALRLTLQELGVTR
Regarding B1, the fold repression turned out to be 3.94.
Same read-out and setting: in the case of B2 it was 2.81.
Consider B3, for which the fold repression worked out at 3.16.
The same measure, in the same setting: then B4, with 4.63; and B5, with 4.17.

Another assay addresses T13, ECF14_1324.
T13 chain: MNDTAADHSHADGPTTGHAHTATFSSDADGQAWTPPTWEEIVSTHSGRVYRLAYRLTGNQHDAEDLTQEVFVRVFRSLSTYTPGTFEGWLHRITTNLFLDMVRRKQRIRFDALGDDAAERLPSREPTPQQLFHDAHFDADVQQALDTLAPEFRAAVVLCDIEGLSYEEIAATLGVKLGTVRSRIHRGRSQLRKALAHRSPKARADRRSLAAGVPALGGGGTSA
Turning to B1, the fold repression worked out at 44.6.
Take B2: the fold repression is 8.93.
Same read-out and setting: then B3, with 36; and B4, with 13.1; and B5, with 13.8.

The target in the next assay is T14, ECF02_915.
T14 chain: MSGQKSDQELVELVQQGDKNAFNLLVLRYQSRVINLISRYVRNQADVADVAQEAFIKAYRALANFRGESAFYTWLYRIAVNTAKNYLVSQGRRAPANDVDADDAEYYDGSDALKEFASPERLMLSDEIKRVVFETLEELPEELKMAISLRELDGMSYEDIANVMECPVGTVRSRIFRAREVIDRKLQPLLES
As for B1, the fold repression turned out to be 4.71.
B2 came in with a fold repression of 3.62.
Same read-out and setting: then B3, with 4.97; and B4, with 3.95; and B5, with 2.67.

The record behind these values is publication PMC3817407.
